In IntAct's records for PubMed 28712572:

B1: Gamma-aminobutyric acid receptor-associated protein (Homo sapiens), O95166 (parent)
chain: MKFVYKEEHPFEKRRSEGEKIRKKYPDRVPVIVEKAPKARIGDLDKKKYLVPSDLTVGQFYFLIRKRIHLRAEDALFFFVNNVIPPTSATMGQLYQEHHEEDFFLYIAYSDESVYGL

Variants of: B1
Conditions: with pcm1_human PCM1, Q15154
Chain of pcm1_human PCM1, Q15154 (Q15154 whole entry): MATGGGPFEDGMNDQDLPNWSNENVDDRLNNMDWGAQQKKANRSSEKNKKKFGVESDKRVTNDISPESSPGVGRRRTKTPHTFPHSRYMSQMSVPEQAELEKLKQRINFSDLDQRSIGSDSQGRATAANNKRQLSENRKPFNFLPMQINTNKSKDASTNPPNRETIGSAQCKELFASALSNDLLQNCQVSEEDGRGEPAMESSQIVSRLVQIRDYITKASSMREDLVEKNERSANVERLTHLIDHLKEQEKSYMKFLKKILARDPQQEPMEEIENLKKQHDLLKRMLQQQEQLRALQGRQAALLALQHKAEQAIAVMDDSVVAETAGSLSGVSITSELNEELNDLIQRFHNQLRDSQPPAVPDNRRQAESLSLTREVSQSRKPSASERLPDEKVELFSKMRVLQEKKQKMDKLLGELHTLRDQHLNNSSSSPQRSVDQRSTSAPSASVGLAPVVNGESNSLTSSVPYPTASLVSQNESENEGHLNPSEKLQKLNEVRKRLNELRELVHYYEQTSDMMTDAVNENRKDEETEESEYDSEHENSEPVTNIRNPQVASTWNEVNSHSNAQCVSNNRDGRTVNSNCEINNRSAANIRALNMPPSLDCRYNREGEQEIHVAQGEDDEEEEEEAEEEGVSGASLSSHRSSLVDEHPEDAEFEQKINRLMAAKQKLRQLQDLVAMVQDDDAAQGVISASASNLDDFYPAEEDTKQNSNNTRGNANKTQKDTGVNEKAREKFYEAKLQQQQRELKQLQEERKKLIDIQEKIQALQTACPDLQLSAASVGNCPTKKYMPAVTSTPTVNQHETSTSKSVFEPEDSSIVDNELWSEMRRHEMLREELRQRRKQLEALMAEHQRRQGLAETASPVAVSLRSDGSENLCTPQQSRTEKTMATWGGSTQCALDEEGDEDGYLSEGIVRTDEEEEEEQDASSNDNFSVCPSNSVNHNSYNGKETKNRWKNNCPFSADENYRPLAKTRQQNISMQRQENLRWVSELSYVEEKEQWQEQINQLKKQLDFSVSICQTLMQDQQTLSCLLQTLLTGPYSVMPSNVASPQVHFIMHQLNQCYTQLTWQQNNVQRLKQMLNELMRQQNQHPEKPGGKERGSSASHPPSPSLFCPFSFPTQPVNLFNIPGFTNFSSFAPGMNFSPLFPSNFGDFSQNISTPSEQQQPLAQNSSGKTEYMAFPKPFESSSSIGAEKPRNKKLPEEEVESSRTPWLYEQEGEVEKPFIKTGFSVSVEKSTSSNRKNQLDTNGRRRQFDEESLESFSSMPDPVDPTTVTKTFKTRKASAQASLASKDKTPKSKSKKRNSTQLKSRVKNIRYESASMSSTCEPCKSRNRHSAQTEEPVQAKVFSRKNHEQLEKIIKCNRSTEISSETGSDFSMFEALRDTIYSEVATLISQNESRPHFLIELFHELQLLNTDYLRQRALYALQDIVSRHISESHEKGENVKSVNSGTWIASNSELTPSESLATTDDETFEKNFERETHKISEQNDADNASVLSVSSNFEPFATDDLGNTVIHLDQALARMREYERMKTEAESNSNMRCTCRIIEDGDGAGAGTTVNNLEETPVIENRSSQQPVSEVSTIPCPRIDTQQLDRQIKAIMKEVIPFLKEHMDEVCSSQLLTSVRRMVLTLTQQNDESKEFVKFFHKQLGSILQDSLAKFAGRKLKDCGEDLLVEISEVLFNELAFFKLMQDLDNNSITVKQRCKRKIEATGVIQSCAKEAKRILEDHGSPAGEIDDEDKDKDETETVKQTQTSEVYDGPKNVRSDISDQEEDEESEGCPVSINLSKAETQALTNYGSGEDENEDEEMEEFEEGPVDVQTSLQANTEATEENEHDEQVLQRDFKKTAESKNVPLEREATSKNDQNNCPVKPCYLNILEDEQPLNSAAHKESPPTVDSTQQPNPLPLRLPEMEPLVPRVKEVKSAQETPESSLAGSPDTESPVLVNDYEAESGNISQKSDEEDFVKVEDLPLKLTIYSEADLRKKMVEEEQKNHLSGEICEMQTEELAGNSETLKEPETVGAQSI

| effect of a mutation on the interaction | Variant |
| --- | --- |
| with no effect | G116A |
